Two molecules from article PMC9993738 can be followed below.

The data set deals with SARS-CoV-2 spike S1 subunit (SARS-CoV-2, UniProt P0DTC2 14-685). The data set can be described thus: bead-based fluorescence.

B1: SpS1-C4 (ssDNA)
DNA: GAACATTGGCGTCCGTGAGCAGCTCGTGGTTGTTTGCTTGTATACTTTTGTGGTTTATCTTGTTTCTGATCACTTCCTCAAACGCCCAA
Take B1: the binding result is on record as “binds”.

B2: SpS1-C1 (ssDNA)
DNA: GAACATTGGCGTCCGTGAGTGAGACCATAGTCCAGCGAACTAAACCTACCCTAAAGGGCAAGGAAGACGGGCACTTCCTCAAACGCCCAA
In the case of B2, the binding result is listed as “binds”.
